Data from publication PMC5923241, “The ng_ζ1 toxin of the gonococcal epsilon/zeta toxin/antitoxin system drains precursors for cell wall synthesis” (Nature Communications, 2018).

Biological target: T1, ngζ_1 toxin (zeta_1) of Neisseria gonorrhoeae, wild type (Neisseria gonorrhoeae, UniProt D5K9G7)
T1 sequence: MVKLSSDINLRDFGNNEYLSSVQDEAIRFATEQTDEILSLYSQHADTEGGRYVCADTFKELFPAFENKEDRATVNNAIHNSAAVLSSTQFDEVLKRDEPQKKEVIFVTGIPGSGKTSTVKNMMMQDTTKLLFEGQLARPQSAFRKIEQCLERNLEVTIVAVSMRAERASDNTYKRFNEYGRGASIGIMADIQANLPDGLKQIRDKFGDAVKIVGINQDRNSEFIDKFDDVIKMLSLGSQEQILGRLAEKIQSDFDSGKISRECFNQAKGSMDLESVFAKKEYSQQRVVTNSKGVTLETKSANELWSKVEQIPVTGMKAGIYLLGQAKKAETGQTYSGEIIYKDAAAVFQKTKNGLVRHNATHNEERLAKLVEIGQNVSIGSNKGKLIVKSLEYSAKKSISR
Test: crystal structure
Settings: both partners purified

B1: ngε_1 antitoxin (epsilon_1) of Neisseria gonorrhoeae (natural protein)
chain: MNKVEPQESNAIRMIKEACEKNRRMMTDEAFRKEVEKRLYAGPSPELLAKLRVLWAANKEQ
notes: also called ng_ɛ1; source: E. coli BL21(DE3)-RIL, purified as ngε_1/ngζ_1 complex (Ni-NTA, standard chromatographic procedures)
Does B1 bind?
Result: binds
